Source: paper doi:10.1101/2023.06.19.545627v1, “Pharmacokinetic profile of the synthetic mu-opioid receptor agonist [Lys7]Dermorphin-IRDye®800CW and its feasibility as a biomarker for opioid use disorder” (bioRxiv, 2023)

Tests used:
[1] = test system: CHO-K1 cells expressing MOR; assay: Wide field fluorescence microscopy of DRM-800 binding and internalization; format: cell-based, Chinese hamster
From the text: Cells were visualized using a Zeiss LSM 800 inverted microscope with a Generation III 750 nm laser light source (Lumencor, Inc., Beaverton, OR) and a Zeiss Plan-Apochromat 20×/0.8 M27 objective lens. The filters used for imaging DRM-800 were 740 nm for excitation, 770 nm dichroic and 780 nm longpass for emission (Filter Set 49037, Chroma Technology Corp., Bellows Falls, VT). Acquisition of micrographs was accomplished using a digital CMOS Camera (C114400-22CU, Hamamatsu Photonics K.K.) with a 2×2 pixel binning. Images were processed in ImageJ FIJI, windowed and leveled identically across samples, and then adjusted step-wise until cells are visible, with each image being shown for transparency.
Wide field fluorescence microscopy (Fig. 3) was used to study the binding and internalization of DRM-800 to stably expressed MORs in the membrane of transfected CHO-K1 cells.

[2] = Plasma pharmacokinetics by direct carotid artery fluorescence imaging after intravenous injection; details: for Plasma half-life (time in which the concentration of dye is 50% of initial) / Distribution (α) half-life / Elimination (β) half-life: IV; for Distribution (α) half-life / Elimination (β) half-life: biexponential; for Distribution (α) half-life / Elimination (β) half-life / Distribution rate, b / Elimination rate, d: value (95% CI); for Distribution rate, b / Elimination rate, d: biexponential fit
MOR = MOR (Mus musculus, UniProt P42866); assay: Whole body biodistribution by cryo-macrotome fluorescence imaging, wildtype vs MOR knockout; details: 1 hour after IV injection
[3] = MOR-knockout mice, n = 4, 1 nmol IV tail vein coinjection with IRDye700DX
[4] = wildtype mice, n = 4, 1 nmol IV tail vein coinjection with IRDye700DX, imaged 1 hour
[5] = rate constants did not differ between groups (wildtype and MOR-knockout mice), 1 nmol IV coinjection with DRM-800

MOR, sequence (P42866 whole entry, looked up): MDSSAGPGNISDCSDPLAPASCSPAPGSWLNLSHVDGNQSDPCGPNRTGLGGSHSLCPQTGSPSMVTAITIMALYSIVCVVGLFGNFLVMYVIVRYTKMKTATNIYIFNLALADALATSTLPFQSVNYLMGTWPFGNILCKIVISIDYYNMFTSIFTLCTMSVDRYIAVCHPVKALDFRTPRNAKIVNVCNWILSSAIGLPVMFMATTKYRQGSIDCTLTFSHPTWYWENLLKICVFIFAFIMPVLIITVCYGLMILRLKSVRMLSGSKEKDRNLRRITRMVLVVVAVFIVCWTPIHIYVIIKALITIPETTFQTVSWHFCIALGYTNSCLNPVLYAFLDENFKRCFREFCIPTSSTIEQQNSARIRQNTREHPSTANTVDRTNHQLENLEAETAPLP

Molecule: C[C@@H](NC(=O)[C@@H](N)Cc1ccc(O)cc1)C(=O)N[C@@H](Cc1ccccc1)C(=O)NCC(=O)N[C@@H](Cc1ccc(O)cc1)C(=O)N1CCC[C@H]1C(=O)N[C@@H](CCCCN)C(=O)N[C@@H](CSC1CC(=O)N(CCNC(=O)CCCCC[N+]2=C(/C=C/C3=C(Oc4ccc(S(=O)(=O)O)cc4)C(=C/C=C4/N(CCCCS(=O)(=O)O)c5ccc(S(=O)(=O)O)cc5C4(C)C)/CCC3)C(C)(C)c3cc(S(=O)(=O)[O-])ccc32)C1=O)C(N)=O (stereo partly drawn) [DRM-800, IRDye®800CW-labelled YdAFGYPKC-NH2]
- Binding and internalization seen by fluorescence microscopy ([1]; 2 nM and 25 nM, 35°C, 30 min of incubation, no sucrose): plasma membrane fluorescence as well as fluorescent puncta of high intensity in the perinuclear region of the cytoplasm were observable
- Binding and internalization seen by fluorescence microscopy with internalization inhibited ([1]; 4C with addition of sucrose (0.35 M)): fluorescence was distinctly observed at the plasma membrane and intracellular puncta was greatly reduced
- Plasma half-life (time in which the concentration of dye is 50% of initial) ([2]; MOR knockout mice): 12.6 min
- Distribution (α) half-life ([2]; MOR knockout mice): 6.2 (4.9 - 8.6) min
- Elimination (β) half-life ([2]; MOR knockout mice): 45 (33–68) min
- Distribution rate, b [2, 3]: 0.11 (0.08-0.14) min^−1
- Elimination rate, d [2, 3]: 0.0155 (0.0102 - 0.0202) min^−1
- Plasma half-life following intravenous injection ([2]; mice (abstract summary over wildtype and knockout)): 8 to 12 min
- Plasma half-life (time in which the concentration of dye is 50% of initial) ([2]; wildtype mice): 7.95 min
- Distribution (α) half-life ([2]; wildtype mice): 3.3 (3.1-3.5) min
- Elimination (β) half-life ([2]; wildtype mice): 70.8 (67.2 - 74.8) min
- Distribution rate, b [2, 4]: 0.211 (0.197 - 0.224) min^-1
- Elimination rate, d [2, 4]: 0.0097 (0.0093 - 0.0103) min^-1
- Fluorescence in small and large intestine, wildtype compared with knockout (MOR; cryo-macrotome ROI analysis): elevated levels of DRM-800 compared with knockout mice
- Ratio of average fluorescence wildtype vs knockout, dorsal root ganglion (MOR; cryo-macrotome ROI analysis): 1.8 ± 0.05
- Ratio of average fluorescence wildtype vs knockout, left spiral ganglion (MOR; cryo-macrotome ROI analysis): 2.2 ± 0.2
- Ratio of average fluorescence wildtype vs knockout, right spiral ganglion (MOR; cryo-macrotome ROI analysis): 2.9 ± 0.3
- Ratio of average fluorescence wildtype vs knockout, trigeminal ganglion (MOR; cryo-macrotome ROI analysis): 3.1 ± 0.2
- Fluorescence signal in brain (MOR; either group of mice (wildtype, knockout)): did not observe any appreciable signal

Molecule: IRDye®700DX [IRD700, reference compound]
- Distribution rate, b [2, 5]: 0.42 (0.36 - 0.47) min^−1
- Elimination rate, d [2, 5]: 0.054 (0.051 - 0.057) min^−1
